To fix the notation:
B1: LRRC45 (parent)
chain: DLSAANEKNLLLQNQVDELERKFR
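Note: lentivirally expressed fusions sorted by FACS into six bins by GFP to DsRed ratio, PSI derived from sequencing read proportions per bin multiplied by bin number.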

Variants of B1 are the subject of the data set. Briefly: protein stability index of a GFP-peptide fusion (GPS, HEK-293T) (PSI 1-6); higher = more stable. To be noted: c terminus: a fixed tail appended.
As for DNSAANEKNLLLQNQVDELERKFR [L2N], the protein stability index was found to be 4.64.

As for DDSAANEKNLLLQNQVDELERKFR [L2D], the protein stability index is 5.31.

With DQSAANEKNLLLQNQVDELERKFR [L2Q], the protein stability index worked out at 4.69.

DSSAANEKNLLLQNQVDELERKFR [L2S]: the protein stability index worked out at 4.86.

As for DRSAANEKNLLLQNQVDELERKFR [L2R], the protein stability index was 4.86.

On to DFSAANEKNLLLQNQVDELERKFR [L2F], for which the protein stability index was found to be 4.54.

As to DHSAANEKNLLLQNQVDELERKFR [L2H], the protein stability index turned out to be 4.61.

Regarding DLSAANEKNLLLQNQVDELEQKFR [R21Q], the protein stability index was determined as 4.09.

On to DLSAANEKNLLLQNQVDELEGKFR [R21G], for which the protein stability index came to 4.49.

In the case of DLSAANEKNLLLQNQVDELEVKFR [R21V], the protein stability index was determined as 4.05.

On to DLSAANEKNLLLQNQVDELESKFR [R21S], for which the protein stability index is 4.23.

Regarding DLSAANEKNLLLQNQVDELEDKFR [R21D], the protein stability index came to 4.28.

DLSAANEKNLLLQNQVDELEAKFR [R21A]: the protein stability index was 4.09.

Take DLSAANEKNLLLQNQVDELENKFR [R21N]: the protein stability index was determined as 4.47.

Consider DLSAANEKNLLLQNQVDELETKFR [R21T], for which the protein stability index came to 4.

As to DLSAANEKNLLLQNQVDELERSFR [K22S], the protein stability index stood at 4.15.

Turning to DLSAANEKNLLLQNQVDELERQFR [K22Q], the protein stability index was 4.06.

Regarding DLSAANEKNLLLQNQVDELERHFR [K22H], the protein stability index came out at 3.86.

On to DLSAANEKNLLLQNQVDELERIFR [K22I], for which the protein stability index came to 3.01.

As to DLSAANEKNLLLQNQVDELERVFR [K22V], the protein stability index stood at 3.27.

Turning to DLSAANEKNLLLQNQVDELERCFR [K22C], the protein stability index amounted to 3.47.

Regarding DLSAANEKNLLLQNQVDELERPFR [K22P], the protein stability index is 3.88.

As to DLSAANEKNLLLQNQVDELEREFR [K22E], the protein stability index turned out to be 4.26.

Regarding DLSAANEKNLLLQNQVDELERMFR [K22M], the protein stability index came out at 3.34.

With DLSAANEKNLLLQNQVDELERDFR [K22D], the protein stability index was 4.31.

Take DLSAANEKNLLLQNQVDELSRKFR [E20S]: the protein stability index amounted to 3.8.

For the variant DLSAANEKNLLLQNQVDELPRKFR [E20P], the protein stability index came to 3.12.

For the variant DLSAANEKNLLLQNQVDELNRKFR [E20N], the protein stability index stood at 3.27.

As to DLSAANEKNLLLQNQVDELARKFR [E20A], the protein stability index was 3.96.

Consider DLSAANEKNLLLQNQVDELRRKFR [E20R], for which the protein stability index is 3.06.

On to DLSAANEKNLLLQNQVDELDRKFR [E20D], for which the protein stability index worked out at 4.25.

In the case of DLSAANEKNLLLQNQVDELCRKFR [E20C], the protein stability index was 3.73.

DLSAANEKNLLLQNQVDELFRKFR [E20F]: the protein stability index came to 2.54.

On to DLSAANEKNLLLQNQVDELERKFM [R24M], for which the protein stability index was 3.96.

For DLSAANEKNLLLQNQVDELERKFF [R24F], the protein stability index was found to be 3.62.

In the case of DLSAANEKNLLLQNQVDELERKFL [R24L], the protein stability index is 3.78.

Take DLSAANEKNLLLQNQVDELERKFI [R24I]: the protein stability index was 3.85.

On to DLSAANEKNLLLQNQVDELERKFV [R24V], for which the protein stability index is 3.71.

In the case of DLSAANEKNLLLQNQVDELERKFD [R24D], the protein stability index amounted to 4.86.

Consider DLSAANEKNLLLQNQVDELERKFE [R24E], for which the protein stability index worked out at 4.71.

As for DLSAANEKNLLLQNQVDELERKFN [R24N], the protein stability index is 4.47.

Take DLSAANEKNLLLQNQTDELERKFR [V16T]: the protein stability index is 3.66.

Consider DLSAANEKNLLLQNQPDELERKFR [V16P], for which the protein stability index was found to be 4.09.

On to DLSAANEKNLLLQNQCDELERKFR [V16C], for which the protein stability index was 3.88.

For DLSAANEKNLLLQNQSDELERKFR [V16S], the protein stability index was determined as 4.32.

Turning to DLSAANEKNLLLQNQNDELERKFR [V16N], the protein stability index was determined as 4.24.

In the case of DLSAANEKNLLLQNQQDELERKFR [V16Q], the protein stability index is 4.29.

Take DLSAANEKNLLLQNQRDELERKFR [V16R]: the protein stability index was 4.17.

Consider DLSAENEKNLLLQNQVDELERKFR [A5E], for which the protein stability index came out at 4.01.

For DLSANNEKNLLLQNQVDELERKFR [A5N], the protein stability index is 3.18.

For the variant DLSAQNEKNLLLQNQVDELERKFR [A5Q], the protein stability index was determined as 3.9.

Turning to DLSAYNEKNLLLQNQVDELERKFR [A5Y], the protein stability index stood at 3.87.

DLSAKNEKNLLLQNQVDELERKFR [A5K]: the protein stability index worked out at 4.33.

In the case of DLSAHNEKNLLLQNQVDELERKFR [A5H], the protein stability index is 4.16.

Turning to DLSAFNEKNLLLQNQVDELERKFR [A5F], the protein stability index is 3.79.

With DLSALNEKNLLLQNQVDELERKFR [A5L], the protein stability index turned out to be 3.83.

Regarding DLSAWNEKNLLLQNQVDELERKFR [A5W], the protein stability index stood at 3.34.

Regarding DLSAANEKNLLLQNQVDELERKKR [F23K], the protein stability index stood at 4.33.

On to DLSAANEKNLLLQNQVDELERKAR [F23A], for which the protein stability index turned out to be 5.13.

In the case of DLSAANEKNLLLQNQVDELERKHR [F23H], the protein stability index was 3.98.

On to DLSAANEKNLLLQNQVDELERKCR [F23C], for which the protein stability index was found to be 4.01.

Take DLSAANEKNLLLQNQVDELERKWR [F23W]: the protein stability index is 3.13.

On to DLSAANEKNLLLQNQVDELERKPR [F23P], for which the protein stability index is 4.77.

In the case of DLSAANEKNLLLQNQVDELERKNR [F23N], the protein stability index was found to be 4.78.

For DLSAANEKNLLLQNQVDELERKTR [F23T], the protein stability index came to 4.39.

Regarding DLSAANEKNLLLQNQVDELERKVR [F23V], the protein stability index was determined as 3.91.

In the case of DLSAANEKNLLLQNQVDELERKMR [F23M], the protein stability index was determined as 4.63.

With DLSAANEKNLLLQNQVDELERKRR [F23R], the protein stability index is 3.86.

Take DLSAANENNLLLQNQVDELERKFR [K8N]: the protein stability index was 4.

Regarding DLSAANEGNLLLQNQVDELERKFR [K8G], the protein stability index amounted to 4.17.

Turning to DLSAANEMNLLLQNQVDELERKFR [K8M], the protein stability index stood at 4.

In the case of DLSAANEQNLLLQNQVDELERKFR [K8Q], the protein stability index is 4.12.

Consider DLSAANEENLLLQNQVDELERKFR [K8E], for which the protein stability index was determined as 4.56.

For the variant DLSAANETNLLLQNQVDELERKFR [K8T], the protein stability index turned out to be 4.31.

On to DLSAANESNLLLQNQVDELERKFR [K8S], for which the protein stability index is 4.36.

DLSAANEFNLLLQNQVDELERKFR [K8F]: the protein stability index turned out to be 3.85.

DLSAANEKNLVLQNQVDELERKFR [L11V]: the protein stability index was found to be 3.96.

For DLSAANEKNLSLQNQVDELERKFR [L11S], the protein stability index was found to be 4.31.

Turning to DLSAANEKNLCLQNQVDELERKFR [L11C], the protein stability index is 4.15.

As to DLSAANEKNLILQNQVDELERKFR [L11I], the protein stability index amounted to 4.46.

As for DLSAANEKNLFLQNQVDELERKFR [L11F], the protein stability index is 4.13.

With DLSAANEKNLRLQNQVDELERKFR [L11R], the protein stability index was found to be 4.04.

DLSAANEKNLTLQNQVDELERKFR [L11T]: the protein stability index came to 3.86.

Turning to DLSAANEKNLQLQNQVDELERKFR [L11Q], the protein stability index was found to be 4.31.

DLSAANEKNLMLQNQVDELERKFR [L11M]: the protein stability index turned out to be 3.56.

On to DLSAANEKNLDLQNQVDELERKFR [L11D], for which the protein stability index is 4.94.

As to DLSAANEKNLPLQNQVDELERKFR [L11P], the protein stability index came out at 4.32.

As to DLSAANEKNLLLQNHVDELERKFR [Q15H], the protein stability index came out at 4.04.

With DLSAANEKNLLLQNPVDELERKFR [Q15P], the protein stability index was 3.71.

Regarding DLSAANEKNLLLQNVVDELERKFR [Q15V], the protein stability index came out at 3.48.

For the variant DLSAANEKNLLLQNGVDELERKFR [Q15G], the protein stability index worked out at 4.36.

Turning to DLSAANEKNLLLQNSVDELERKFR [Q15S], the protein stability index came out at 4.42.

Regarding DLSAANEKNLLLANQVDELERKFR [Q13A], the protein stability index came out at 4.25.

For DLSAANEKNLLLPNQVDELERKFR [Q13P], the protein stability index was 3.8.

These data come from the supplement of paper PMC10567573.
